The record followed here is US5856161, “Tumor necrosis factor receptor-I-associated protein kinase and methods for its use” (Research Development Foundation, dated 1999).

One test addresses cdk4 (human, UniProt P11802). The test can be described thus: precipitation of U937 cell extracts with p13^suc1 -agarose, immunoblot.
The next test has as its target cdk2 (human (endogenous, U937 cells); not …, UniProt P24941). In words: in vitro translated 35S-labelled protein, pull-down with GST-p80CD on glutathione agarose. The method, then:
(§1) U937 cells lysates (15×10⁶/assay) were prepared and affinity precipitated with the indicated fusion protein as described below. Whole cell extracts were prepared from 2×10⁶ U937 cells by boiling the cells in 100 μl of SDS-sample buffer. Proteins were resolved by 8.5% SDS-polyacrylamide gel electrophoresis, transferred to PVDF membrane, and probed with the indicated antibodies. The mock reaction contains GST-p60Δ8 without U937 cell lysates. […] The samples were subjected to 8.5% SDS-polyacrylamide gel electrophoresis and analyzed by a PhosphorImager. Ten percent of total ^35S-labeled protein (10% input) added to each binding reaction was loaded as a standard. […] The conditions utilized for this experiment were similar to those previously described (Dyson et al., 1989). Briefly, U937 cells were either treated without or with 0.1 nM TNF for 5 minutes. […] Precipitates bound to protein A/G sepharose beads were collected by centrifugation and washed four times in lysis buffer and one time in kinase buffer. The samples were subjected to 8.5% SDS-polyacrylamide gel electrophoresis and analyzed by a PhosphorImager and ImageQuant software.

A further test has as its target cdc2 (human, UniProt P06493). The test is described as above. The method, then:
as §1

Experimental for cdk4: U937 cells (4×10^6) were lysed and precipitated with p13^suc1 agarose. Beads were collected by centrifugation, washed with lysis buffer, and boiled in the presence of SDS-sample buffer. […] Immunoreactive bands were detected using horseradish peroxidase-conjugated secondary antibodies and the Enhanced Chemiluminescence system (ECL). […] Equal amounts of U937 cell lysates were incubated with 25 μg of either GST bound to glutathione agarose (−) or p13^suc1-agarose (+) for 1 hour at 4° C. with shaking. The beads were collected by centrifugation, and the supernatant was once more centrifuged. An equal volume of the supernatant was affinity precipitated with GST-p60Δ15. The precipitates were washed extensively, and in vitro kinase assays with histone H1 (5 μg) were performed as described below. Proteins were separated by 8% SDS-polyacrylamide gel electrophoresis and analyzed by a PhosphorImager and ImageQuant software. […] Equal amounts of U937 cell lysates were incubated with either GST bound to glutathione agarose (−) or p13^suc1-agarose (+) for 1 hour at 4° C. with shaking. The beads were collected by centrifugation, and the supernatant was once more centrifuged. An equal volume of the supernatant was affinity precipitated with either GST-p60Δ8 or GST-p60Δ15. The precipitates were washed extensively, and in vitro kinase assays with Rb^110 (0.2 μg) were performed as described below.

B1: p13^suc1 -agarose (other)
chain: SKSGVPRLLTASERERLEPFIDQIHYSPRYADDEYEYRHVMLPKAMLKAIPTDYFNPETGTLRILQEEEWRGLGITQSLGWEMYEVHVPEPHILLFKREKDYQMKFSQQRGG
B1: the binding result with cdk4 is “no binding”.

B2: GST-p80CD (receptor)
chain: KKKPLCLQREAKVPHLPADKARGTQGPEQQHLLITAPSSSSSSLESSASALDRRAPTRNQPQAPGVEASGAGEARASTGSSDSSPGGHGTQVNVTCIVNVCSSSDHSSQCSSQASSTMGDTDSSPSESPKDEQVPFSKEECAFRSQLETPETLLGSTEEKPLPLGVPDAGMKPS
Consider B2, for which the binding result with cdk2 and with cdc2 was “no binding” throughout.
